Laboratory results from publication PMC3711442 (Nucleic Acids Research, 2013).
Substitutions are numbered along the chain they refer to. Names and notes keep the numbering of the source.

B1: phage ϕ29 protein p56, wild type (natural protein, Bacillus subtilis phage ϕ29)
chain: MVQNDFVDSYDVTMLLQDDDGKQYYEYHKGLSLSDFEVLYGNTADEIIKLRLDKVL
B2: phage ϕ29 protein p56 N42R (natural protein, Bacillus subtilis phage ϕ29)
chain: B1 chain with N42R
B3: phage ϕ29 protein p56 D45R (natural protein, Bacillus subtilis phage ϕ29)
chain: B1 chain with D45R
B4: phage ϕ29 protein p56 D45S (natural protein, Bacillus subtilis phage ϕ29)
chain: B1 chain with D45S
B5: phage ϕ29 protein p56 V38E (natural protein, Bacillus subtilis phage ϕ29)
chain: B1 chain with V38E
B6: phage ϕ29 protein p56 H28K (natural protein, Bacillus subtilis phage ϕ29)
chain: B1 chain with H28K

Legend:
Assay in all cases: pull-down
GST-BsUDG S189A = target: T1, GST-BsUDG S189A (Bacillus subtilis, UniProt P39615 1-225, S189A)
T1 sequence: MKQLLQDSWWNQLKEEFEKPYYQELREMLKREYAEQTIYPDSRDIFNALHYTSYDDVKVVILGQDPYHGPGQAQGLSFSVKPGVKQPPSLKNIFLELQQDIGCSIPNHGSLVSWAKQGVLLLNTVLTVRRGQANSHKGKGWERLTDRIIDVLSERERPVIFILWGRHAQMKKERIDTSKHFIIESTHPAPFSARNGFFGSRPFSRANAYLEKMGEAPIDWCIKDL

GST-BsUDG R194S = target: T2, GST-BsUDG R194S (Bacillus subtilis, UniProt P39615 1-225, R194S)
T2 sequence: T1 sequence with A189S, R194S

GST-BsUDG, wild type = target: T3, GST-BsUDG, wild type (Bacillus subtilis, UniProt P39615 1-225)
T3 sequence: T1 sequence with A189S

Row | Binder | complexes formed relative to wild-type p56 (GST-BsUDG, wild type) [%] | other results
1 | B1 |  | reduction in p56 binding relative to wild-type GST-BsUDG (GST-BsUDG S189A): 84%; reduction in p56 binding relative to wild-type GST-BsUDG (GST-BsUDG R194S): 75%
2 | B2 | < 10 | 
3 | B3 | < 10 | 
4 | B4 |  | complex formation relative to wild-type p56 (GST-BsUDG, wild type): ~75%
5 | B5 | < 10 | 
6 | B6 | < 10 | 
